Measured values taken from PMC2836542 (International Journal of Biological Sciences, 2010).

Biological target: E2F-1/Y411A (UniProt Q01094 1-437, Y411A)
Test: co-IP

Sequence of E2F-1/Y411A (Q01094 whole entry Y411A): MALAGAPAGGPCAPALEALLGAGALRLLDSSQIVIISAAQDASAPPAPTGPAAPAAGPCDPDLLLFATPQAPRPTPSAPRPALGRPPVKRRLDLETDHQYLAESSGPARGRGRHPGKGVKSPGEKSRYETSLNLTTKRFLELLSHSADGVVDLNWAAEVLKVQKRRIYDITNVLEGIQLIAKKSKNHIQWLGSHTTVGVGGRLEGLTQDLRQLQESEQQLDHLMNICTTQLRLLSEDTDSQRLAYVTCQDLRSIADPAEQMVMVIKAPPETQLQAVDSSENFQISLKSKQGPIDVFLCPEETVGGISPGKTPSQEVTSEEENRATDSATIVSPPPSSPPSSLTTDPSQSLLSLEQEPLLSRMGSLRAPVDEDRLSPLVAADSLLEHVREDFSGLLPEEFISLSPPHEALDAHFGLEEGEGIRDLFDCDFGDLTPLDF

B1: pRB (natural protein, mouse (endogenous in ψ-CRE), UniProt P13405 1-921, looked up)
chain: MPPKAPRRAAAAEPPPPPPPPPREDDPAQDSGPEELPLARLEFEEIEEPEFIALCQKLKVPDHVRERAWLTWEKVSSVDGILEGYIQKKKELWGICIFIAAVDLDEMPFTFTELQKSIETSVYKFFDLLKEIDTSTKVDNAMSRLLKKYNVLCALYSKLERTCELIYLTQPSSALSTEINSMLVLKISWITFLLAKGEVLQMEDDLVISFQLMLCVVDYFIKFSPPALLREPYKTAAIPINGSPRTPRRGQNRSARIAKQLENDTRIIEVLCKEHECNIDEVKNVYFKNFIPFINSLGIVSSNGLPEVESLSKRYEEVYLKNKDLDARLFLDHDKTLQTDPIDSFETERTPRKNNPDEEANVVTPHTPVRTVMNTIQQLMVILNSASDQPSENLISYFNNCTVNPKENILKRVKDVGHIFKEKFANAVGQGCVDIGVQRYKLGVRLYYRVMESMLKSEEERLSIQNFSKLLNDNIFHMSLLACALEVVMATYSRSTLQHLDSGTDLSFPWILNVLNLKAFDFYKVIESFIKVEANLTREMIKHLERCEHRIMESLAWLSDSPLFDLIKQSKDGEGPDNLEPACPLSLPLQGNHTAADMYLSPLRSPKKRTSTTRVNSAANTETQAASAFHTQKPLKSTSLALFYKKVYRLAYLRLNTLCARLLSDHPELEHIIWTLFQHTLQNEYELMRDRHLDQIMMCSMYGICKVKNIDLKFKIIVTAYKDLPHAAQETFKRVLIREEEFDSIIVFYNSVFMQRLKTNILQYASTRPPTLSPIPHIPRSPYKFSSSPLRIPGGNIYISPLKSPYKISEGLPTPTKMTPRSRILVSIGESFGTSEKFQKINQMVCNSDRVLKRSAEGGNPPKPLKKLRFDIEGADEADGSKHLPAESKFQQKLAEMTSTRTRMQKQRMNESKDVSNKEEK
fold less binding than E2F-1/wt: 5 fold less
